The record followed here is publication PMC314469, “Protein Interaction Networks by Proteome Peptide Scanning” (PLoS Biology, 2004).

Assay [1] addresses endophilin SH3 (SH3G2_HUMAN), Q99962. Description: SPOT array.
Assay [2] has as its target T1, amphyphisin SH3 (AMPH_HUMAN), P49418.
T1 chain: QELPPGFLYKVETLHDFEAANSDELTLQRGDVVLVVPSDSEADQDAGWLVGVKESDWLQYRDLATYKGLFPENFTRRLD
Briefly: SPOT array.

As for PQSSLRRPDPGRLP [O95613 3094-3107], the normalised SPOT signal, Boehringer light units (BLU); mean over the file's lines of this peptide is 37.8 in assay [1] and 39.9 in assay [2].

On to PREFPFKPPSIYMI [Q96T84 67-81], for which the figures for the normalised SPOT signal, Boehringer light units (BLU); mean over the file's lines of this peptide in assay [1] and in assay [2] were 519 and 32.3, respectively.

On to PPQSPRRPELPDLA [Q00973 42-55], for which the normalised SPOT signal, Boehringer light units (BLU); mean over the file's lines of this peptide is 164 in assay [1] and 51.7 in assay [2].

Regarding PPQVPSRPTRAPPS [Q9UQ16 664-677], the normalised SPOT signal, Boehringer light units (BLU); mean over the file's lines of this peptide in assay [1] was 12700; in assay [2], 8780.

As for PPQPPQRPPPPTGL [O15056 1050-1064], the results for the normalised SPOT signal, Boehringer light units (BLU); mean over the file's lines of this peptide in assay [1] and in assay [2] were 9830 and 1380, respectively.

Turning to PPTRPSRPWRDLPE [Q9UIG4 65-78], the normalised SPOT signal, Boehringer light units (BLU); mean over the file's lines of this peptide is 14300 in assay [1] and 4300 in assay [2].

ASGGPRRPERHLPP [Q9Y6R0 7-20]: the normalised SPOT signal, Boehringer light units (BLU); mean over the file's lines of this peptide in assay [1] worked out at 12600; in assay [2], 3320.

PQTELRRPGQLIDE [Q9H1Y1 836-849]: the normalised SPOT signal, Boehringer light units (BLU); mean over the file's lines of this peptide in assay [1] is 44.1; in assay [2], 27.5.

Turning to PQPPPRRPWASRVL [O94850 45-58], the normalised SPOT signal, Boehringer light units (BLU); mean over the file's lines of this peptide was found to be 508 in assay [1] and 79.9 in assay [2].

For the molecule PREPPRRPAFLPVG [Q13387 310-323], the normalised SPOT signal, Boehringer light units (BLU); mean over the file's lines of this peptide in assay [1] stood at 1100; in assay [2], 32.1.

Take PPYGPSRPDKKQRM [Q9HA17 357-370]: the normalised SPOT signal, Boehringer light units (BLU); mean over the file's lines of this peptide in assay [1] was 394; in assay [2] it was 193.

In the case of PQGPPRRPPPHILD [Q9P2A8 24-38], the normalised SPOT signal, Boehringer light units (BLU); mean over the file's lines of this peptide in assay [1] is 4220; in assay [2] it was 131.

As for PPSAPRRPPVYYKF [O95696 129-142], the figures for the normalised SPOT signal, Boehringer light units (BLU); mean over the file's lines of this peptide in assay [1] and in assay [2] were 2730 and 71.5, respectively.

As for PQPGFRRPARPETQ [Q16624 63-76], the results for the normalised SPOT signal, Boehringer light units (BLU); mean over the file's lines of this peptide in assay [1] and in assay [2] were 97 and 2800, respectively.

Consider PRANPRRPPRAIVP [Q8WYW1 101-114], for which the figures for the normalised SPOT signal, Boehringer light units (BLU); mean over the file's lines of this peptide in assay [1] and in assay [2] were 94.1 and 373, respectively.

Regarding PPTPPPRPQKTHSR [O43428 338-351], the normalised SPOT signal, Boehringer light units (BLU); mean over the file's lines of this peptide in assay [1] worked out at 41100; in assay [2] it was 8950.

As to ASHPPPRPPKHPSV [BAC05194 549-563], the normalised SPOT signal, Boehringer light units (BLU); mean over the file's lines of this peptide in assay [1] worked out at 5360; in assay [2], 848.

Regarding PPWGPFRPPYSIFQ [BAC05210 58-72], the normalised SPOT signal, Boehringer light units (BLU); mean over the file's lines of this peptide stood at 2520 in assay [1] and 56.3 in assay [2].

Consider ASLFPKRPALEPVR [Q9Y2X7 686-699], for which the normalised SPOT signal, Boehringer light units (BLU); mean over the file's lines of this peptide is 926 in assay [1] and 41.1 in assay [2].

PPVVPRRPPAHISS [Q9NTY8 3-17]: the normalised SPOT signal, Boehringer light units (BLU); mean over the file's lines of this peptide worked out at 17800 in assay [1] and 6110 in assay [2].

For PRAVPARPPTRPRF [Q8TE87 150-164], the results for the normalised SPOT signal, Boehringer light units (BLU); mean over the file's lines of this peptide in assay [1] and in assay [2] were 17600 and 6470, respectively.

Take PRGVLPRPSRVLVL [Q9NYA1 7-20]: the normalised SPOT signal, Boehringer light units (BLU); mean over the file's lines of this peptide in assay [1] was 508; in assay [2] it was 1850.

Regarding PREGPGRPPLDGRD [Q9H8B2 127-141], the normalised SPOT signal, Boehringer light units (BLU); mean over the file's lines of this peptide in assay [1] worked out at 58.8; in assay [2] it was 47.3.

As to ASGHIKRPMNAFMV [P35716 45-58], the normalised SPOT signal, Boehringer light units (BLU); mean over the file's lines of this peptide in assay [1] is 146; in assay [2], 49.

Consider PPQVPSRPNRAPPG [Q05193 829-842], for which the normalised SPOT signal, Boehringer light units (BLU); mean over the file's lines of this peptide was found to be 19600 in assay [1] and 11000 in assay [2].

With PPRKIKRPKRKMYR [Q96PV3 296-309], the normalised SPOT signal, Boehringer light units (BLU); mean over the file's lines of this peptide turned out to be 30.1 in assay [1] and 17.3 in assay [2].

In the case of PPVRPARPPGPLVT [Q8WYX3 74-88], the normalised SPOT signal, Boehringer light units (BLU); mean over the file's lines of this peptide in assay [1] worked out at 6550; in assay [2], 7480.

Take PPSRPSRPPSHPSA [Q99700 586-600]: the figures for the normalised SPOT signal, Boehringer light units (BLU); mean over the file's lines of this peptide in assay [1] and in assay [2] were 20300 and 14900, respectively.

With PRKAPRRPGPGMSG [Q92611 83-96], the normalised SPOT signal, Boehringer light units (BLU); mean over the file's lines of this peptide in assay [1] worked out at 221; in assay [2] it was 46.8.

For PQEHPKRPVLGLES [O95862 118-131], the normalised SPOT signal, Boehringer light units (BLU); mean over the file's lines of this peptide in assay [1] worked out at 4.5; in assay [2] it was 20.2.

With PRAPLHRPQKPREG [Q9P1Y6 1426-1439], the values for the normalised SPOT signal, Boehringer light units (BLU); mean over the file's lines of this peptide in assay [1] and in assay [2] were 194 and 98.2, respectively.

Consider PQQFPSRPPPPQPK [Q13443 782-796], for which the normalised SPOT signal, Boehringer light units (BLU); mean over the file's lines of this peptide in assay [1] was found to be 5200; in assay [2], 321.

With PPWVPWRPPSSAAV [Q9UN47 31-45], the results for the normalised SPOT signal, Boehringer light units (BLU); mean over the file's lines of this peptide in assay [1] and in assay [2] were 835 and 829, respectively.

As to PPQIPSRPVRIPPG [P50570 828-841], the normalised SPOT signal, Boehringer light units (BLU); mean over the file's lines of this peptide in assay [1] worked out at 37500; in assay [2] it was 8890.

In the case of PPQVPSRPTRAPPR [Q9H0P3 825-838], the normalised SPOT signal, Boehringer light units (BLU); mean over the file's lines of this peptide in assay [1] is 11000; in assay [2], 6350.

On to PRAWPRRPRRDYSI [O43385 549-562], for which the normalised SPOT signal, Boehringer light units (BLU); mean over the file's lines of this peptide is 221 in assay [1] and 1550 in assay [2].

Turning to PQPPPPKPPRPQPP [P35556 29-43], the normalised SPOT signal, Boehringer light units (BLU); mean over the file's lines of this peptide came to 3390 in assay [1] and 513 in assay [2].

As for PPSGPLRPPATISP [Q9H4B5 83-97], the normalised SPOT signal, Boehringer light units (BLU); mean over the file's lines of this peptide in assay [1] was found to be 127; in assay [2], 105.
